Data as given in the nanobody polyreactivity screen of Harvey et al. (2022).

assay: yeast display, Sf9 membrane polyspecificity reagent, FACS + sequencing; frameworks hold sequencing errors
Procedure, shortened: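 Synthetic nanobody libraries on Saccharomyces cerevisiae BJ5465 were galactose-induced for 36–48 hours, stained 1 hour at 4 °C with 10% biotinylated, detergent-solubilized Sf9 membrane reagent and enriched on streptavidin microbeads. FACS then separated cells into low and high (top ~1%) gates by anti-HA (expression) and streptavidin (reagent binding) fluorescence. Genes were colony-PCR amplified, MiSeq 2 × 250 sequenced and CDR-length filtered. A clone's polyreactivity label is that of its gate of origin.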

Sequence | polyreactivity (PSR sort gate)
QVQLVESGGGLVQAGGSLRLSCAASGRTFVRNTMGWYRQAPGKERELVAAISGGGSTYYADSVKGRFTISSDNAKKTVYLQMNSLKPEDTAVYYCAATTRRQGGKRFDYWGQGTQVTVSS | high polyreactivity
QVQLVESGGGLVQAGGILRLSCAASGRIFCSYAMGWYRQAPGKERELVAAITRGASTNYADSVKGRFTISRDNAKNIVYLQMNSLKPEDTAVYYCAAGWGRYPILGYYYWGQGTQVTVSS | high polyreactivity
QVQLVESGGGLVQAGGSLRLSCAASGSIFYFHALGWYRQAPGKERELVAAITRRGGSTRYADSVKGRFTISRDNAKNTVYLQMNSLKPEDTAVYYCAAVKEYSYSYKSYDVYYWGQGTQVTVSS | high polyreactivity
QVQIVESGGALVQAGGSLSLSCAASRSTFYRNDMGWYRQAPGKEREFVAAISFRGGGTYADSVKGRFTISRDNAKITVYLQMNSLKPEDTAVYYCAADHLSYRRRYEYWGQGTQVTVSS | low polyreactivity
QVQLVESGGRLVQAGGSLRLTCAASGSTFPKYAMGWYRQAPGKERELVASISVTTGSTYYADSVKGRFTISRDNAKNTVYLQMNSLKPVDTAVYYCAKRTYSRKFRGAYNYWGQGTQVTVSS | high polyreactivity
QVQLVESGGGLVQAGGSLRLSCAASGRTFSVYAMGWYRQAPGKERELVAAISGRGGRTYYADSVKGRFTISRDNAKNTVYLQMNSLKPEDTAVYYCTADVGVYHDDYWGQGTQVTVSS | high polyreactivity
QVQLVESGGGLVQAGGSLRLSCAASGSIFTFNTMGWYRQAPGKERELVATISSGGRTYYADSVKGRFTISRDNAKNTVYLQMNSLKPEDTAVYYCNKGYYGYTYVEYNYWGQGTQVTVSS | low polyreactivity
QVQIVDSGGGLVQAGGSLRISCAASGYISRVYAMGWYRQAPRKERELVAAITRSTTYYADSVKGRFTISRDNAKNTVYLQMNSLKPEDSAVYYCNAVWASPGQVRMYYWGQGTQVNVSS | high polyreactivity
QVQLVESGGGLVQAGGSLRLSCAASGSIFVPYAMGWYRQAPGKERELVAGINWSSGRTYYADSVKGRFTISRDNAKNTVYLQMNSLKPEDTAVYYCAAEKYTTYSFYHVAYDYWGQGTQVTVSS | high polyreactivity
QVQLVESGGGLVQAGGSLRLSCAASGRIFRFYAMGWYRHPPGKERELVAAIRRGGSTTYADSVKGRFTISRDNAKNTVYLQMNSLKPEDTAVYYCAATQYYRGYDYWGQGTQVTVSS | high polyreactivity
QVQLVESGGGLVQAGGSLRLSCAASGSIFNSNAMGWYRQAPGKERELVATIRWSGGSTNYADSVKGRFTISRDNAKNTVYLQMNSLKPEDTAVYYCAVLPRGSNGMDYWGQGTQVTVSS | low polyreactivity
QVQLVESGGGLVQAGGSLRLSCAASGFTFFWNAMGWSRQAPGKERELVAVITFRGGDTYYADSVKGRFTISRDNAKNTVYLQMNSLKPEDTAVYYCNADWQSYGYLWHSSLYYYWGQGTQVTVSS | low polyreactivity
QVQLVESGAGLVQAGGSLRLSCAASGLTFRSYAMGWYRQAPGKERELVAAITRSGGSTYYADSVKGRFTISRDNAKNTVYLQMNSLKPEDTAVYYCAARYKGNPDRYGYWGQGTQVTVSS | high polyreactivity
QVKLVESGGGLVQAGGSLRLSCAASGSTFFIYTKGLYRQAPGKEREFVAAISWTGGRTYYADSVKGRFTISRDNAKNTVYLQMNSLKPEDTAVYYCAARYKYSSYDYWGQGTQVTVSS | high polyreactivity
QDQHVESGGGLVQAGCSLRLSCAASGFIFTYYAMGWYRQAPGKERELVAAISRSGGNTYYADSVKGRFTISRDNAKNTVYFQMYSLKREDTAVYFCAAETRRGGYWGYEYYYWGQGTQVTVSS | high polyreactivity
QVQLVEEGGGLVQAGGSLSLSCAASGRIFKTNSMGWYIQAPGKERELVAGSTDSGDSTYYADSVKGRFTISRDNAKNTVYLQMNSLKPEDTAVYYCATDPASPYIYDYWGQGTQVTVSS | low polyreactivity

Sequence | polyreactivity (PSR sort gate)
QVQLVESGGGLVQAGGSLRLSCAASGFTFGYYAMGWYRQAPGKEREFVARISWSGDSTYYADSVKGRFTISRDNAKNTVYLQMNSLKPEDTSVYYCAAVVQTSWGKWNDYWGPGTQVTVSS | high polyreactivity
HAQLQESGGGLVQAGGSLRRSCAASGSIFRFSGMGWYRRAPGKERELVASIGFGSITYYADRVKGRFTMSRDNANNTVYLQKNSLKPEDTAVDYCAVQVQDESWLDYWGQGTQVTVSC | low polyreactivity
QVQLVESGGGLVQAGGSLRLSCAASGSTFDINTMGWYRQAPGKEREFVAAITDSDDSTYYADSVKGRFTISRDNAKNTVYLQMNSLKPEDTAVYYCAHDYDGYVWDTEYDYWGQGTQVTVSS | low polyreactivity
QVQLVESGGGLVQAGGSLRLICAASGIIFVGYAMGWYRQAPGKERELVAAIDGTGDSTYYADSVKGRFTISRDNAKNTVYLQMNSLKPEDTAVYYCDAEYDYRWWYGYDYWGQATQVTVSS | high polyreactivity
QVQLVESGGGLVQAGGSLRLSCAASGFIYTSYTMGWYRQAPGKERELVAAISYRGGRTYYADSVNGRFTISRDNAKNTVYLQMNSLKPEVTAVYYCAADRVNREFDYWGQGTQVTVSS | high polyreactivity
QVQLVESGGGLVQAGGSLRLSCAASGRTFYRYAMGWYRQAPGKERELVASISSGGSTDYADSVKGRFTISRDNAKNTVYLQMNSLKPEDTAVYYCNAEIVGFWTSYDYWGQGTQVTVSS | low polyreactivity
QVQLVESGGGLVQAGGSLRLSCAASGRIFSYYAMGWYRQAPGKERELVASITWSGGSTYYADSVKGRFTISRDYAKNTVYLQMNRLKPEDTAVYYCNTAVLAPYDSGYWGQGTQVTVSS | low polyreactivity
QVQLVESGGGLVQAGGSLRLSCAASGNIFSDYTMGWYRQAPGEERELVAAISGEGGTTYNADSVKGRFTISRDNAKNTVYLQMNRLKPEDPAVYYCAADGYYHAYDQFFIVYYEYDYWGQGTQVTVSS | low polyreactivity
QVQLVDSGGGLVQAGGSLRLSCAASGSTFDGNTMGWYRQAPGKERELVATITNSGGNTYYADSVKGRFTISRDNAKNTVYLQMNSLKPEDTAVYYCNARRTSWRRLGNFYYWGQGTQVTVSS | high polyreactivity
QVQLVESGGGLVQAGGSLRLSCAASGSIFFRYTMGWYRQAPGKERELVAAITGSGGSTYYADSVKGRFTISRDNAKNTVYLQMNSLKPEDTAVYYCARPGWGRYEYWGQGTQVTVSS | high polyreactivity
QVQLVESGGGLVQAGGSLRLSCAASGITFVSYAMGWYRQAPGKERELVAAISSWSGGTTYYADSVKGRFTISRDNAKNTVYLQMNSLKPEDTAVYYCAAVSFGSYRLGYWGQGTQVTVSS | high polyreactivity
QVQLVESGGGLVQAGGSLRLSCAASGSIFPPYAMGWYRPAPGKERELVAAINSGGSTNYADSVKGRFTISRDNAKNTVYLQMNSLIPEDTAVYYCNVDESYDWRTRKYDSWGQVTQVTVSS | low polyreactivity
QVQLVESGGGLVQAGGSLRLSCAASGFIFGGYAMGWYRQAPGKERELVAAISYGGGSTYYADSVNGRFTISRYNAKNTVYLQMNSLKPEDTAVYYCAADIPGYRYTGYRRGYWGQGTQVTVSS | high polyreactivity
QVQLVESGGGLVQAGGSLRLTCAASGRILDRYVMGWYRQAPGKERELVAAISQSGRGTYYADSVKGRFTISRDNAKNTVYLQMNSLKPEVTAVYYCAARGTGYHGYGYWGQGSQVTVSS | high polyreactivity
QVQLVESGGGLVQAGGSLRLSCAASGIIFFKYAMGWYRQAPGKERQLVAAITSGGSTYYADSVKGRFTISRDNEKNTVYLQMNSLKPVDTAVYYCAAAGGRFIRYGYWGQGTQVTVSS | high polyreactivity
QVQLVESGGGLVQAGCSLRLSCAASGLIFRSYAMGWYRQAPGKERELFARISIRGGSTYYADSVKGRFTISRDNAKNTVYLQMNSLKPEDTAVYYCAARPKNNWARTKYGIRYNYWGQGTQVTVSS | high polyreactivity
